Assay results published in IntAct's records for PubMed 11134025.

B1: Protein kinase C-like 3 (Caenorhabditis elegans), Q19266 (parent)
chain: MSSPTSLEEDGDIKLKTRFQGQVVVLYARPPLILDDFFALLKDACKQHKKQDITVKWIDEDGDPISIDSQMELDEAVRCLNSSQEAELNIHVFVGKPELPGLPCQGEDKTVYRRGARRWKKIYLYNGHRFQAKRLNRRIQCFICHDYIWGIGRQGFRCVDCRLCVHKKCHRHVRTHCGQALQGPNIIPMAPASGSLKGARSNTSSSTTRSGGGIDNGAFHEHEIESPGSTSHDASRAMNGNGSSKWAVSLNDFRLLTVIGRGSYAKVVQAEHVSTRQIYAIKIIKKEMFNEDEDIDWVQTEKSVFEAASNYPFLVGLHSCFQTESRLFFVIEFVPGGDLMFHMQQQRKLPEEHARFYSGEIILALHFLHSRGIIYRDLKLDNVLIDAEGHIKLTDYGMCKENIKDGDLTSTFCGTPNYIAPEILRGDEYGFSVDWWALGVLMFEMMAGRSPFDIVGMQNSEENTEDYLFQIILERQIRIPRSLSVRASGILKGFLNKDPTERLGCKLDINEGLRDMKEHQFFRGFIDWEALEQKAVAPPYHPAVESDRDLTHFDHQFTDELPQLSPDNPDVIARIDQSEFDGFEYVNPLQMSREDSV
partner: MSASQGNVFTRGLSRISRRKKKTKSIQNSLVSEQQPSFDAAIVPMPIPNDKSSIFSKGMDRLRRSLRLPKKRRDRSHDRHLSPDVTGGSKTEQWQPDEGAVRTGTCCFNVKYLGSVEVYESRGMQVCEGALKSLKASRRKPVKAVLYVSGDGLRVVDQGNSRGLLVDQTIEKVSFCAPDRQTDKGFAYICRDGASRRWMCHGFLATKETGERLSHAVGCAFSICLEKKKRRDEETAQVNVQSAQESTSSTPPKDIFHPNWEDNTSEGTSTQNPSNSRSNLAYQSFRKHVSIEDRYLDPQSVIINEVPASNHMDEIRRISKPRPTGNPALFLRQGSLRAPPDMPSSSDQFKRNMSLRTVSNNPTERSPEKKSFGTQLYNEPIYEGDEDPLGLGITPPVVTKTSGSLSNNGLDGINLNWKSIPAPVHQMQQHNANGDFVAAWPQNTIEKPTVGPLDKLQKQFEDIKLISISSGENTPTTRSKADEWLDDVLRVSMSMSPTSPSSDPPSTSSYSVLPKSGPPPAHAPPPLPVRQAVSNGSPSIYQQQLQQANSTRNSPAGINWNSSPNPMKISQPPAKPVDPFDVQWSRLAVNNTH

Variants of: B1
Conditions: with num-1, Q9XTY6-1

Effect of a mutation on the interaction, decreasing interaction:
MSSPTSLEEDGDIKLKTRFQGQVVVLYARPPLILDDFFALLKDACKQHKKQDITVKWIDEDGDPISIDSQMELDEAVRCLNSSQEAELNIHVFVGKPELPGLPCQGEDKTVYRRGARRWKKIYLYNGHRFQAKRLNRRIQCFICHDYIWGIGRQGFRCVDCRLCVHKKCHRHVRTHCGQALQGPNIIPMAPASGSLKGARSNTSSSTTRSGGGIDNGAAHEHEIESPGSTSHDASRAMNGNGSSKWAVSLNDFRLLTVIGRGSYAKVVQAEHVSTRQIYAIKIIKKEMFNEDEDIDWVQTEKSVFEAASNYPFLVGLHSCFQTESRLFFVIEFVPGGDLMFHMQQQRKLPEEHARFYSGEIILALHFLHSRGIIYRDLKLDNVLIDAEGHIKLTDYGMCKENIKDGDLTSTFCGTPNYIAPEILRGDEYGFSVDWWALGVLMFEMMAGRSPFDIVGMQNSEENTEDYLFQIILERQIRIPRSLSVRASGILKGFLNKDPTERLGCKLDINEGLRDMKEHQFFRGFIDWEALEQKAVAPPYHPAVESDRDLTHFDHQFTDELPQLSPDNPDVIARIDQSEFDGFEYVNPLQMSREDSV [F219A]
MSSPTSLEEDGDIKLKTRFQGQVVVLYARPPLILDDFFALLKDACKQHKKQDITVKWIDEDGDPISIDSQMELDEAVRCLNSSQEAELNIHVFVGKPELPGLPCQGEDKTVYRRGARRWKKIYLYNGHRFQAKRLNRRIQCFICHDYIWGIGRQGFRCVDCRLCVHKKCHRHVRTHCGQALQGPNIIPMAPASGSLKGARSNTSSSTTRSGGGIDAGAFHEHEIESPGSTSHDASRAMNGNGSSKWAVSLNDFRLLTVIGRGSYAKVVQAEHVSTRQIYAIKIIKKEMFNEDEDIDWVQTEKSVFEAASNYPFLVGLHSCFQTESRLFFVIEFVPGGDLMFHMQQQRKLPEEHARFYSGEIILALHFLHSRGIIYRDLKLDNVLIDAEGHIKLTDYGMCKENIKDGDLTSTFCGTPNYIAPEILRGDEYGFSVDWWALGVLMFEMMAGRSPFDIVGMQNSEENTEDYLFQIILERQIRIPRSLSVRASGILKGFLNKDPTERLGCKLDINEGLRDMKEHQFFRGFIDWEALEQKAVAPPYHPAVESDRDLTHFDHQFTDELPQLSPDNPDVIARIDQSEFDGFEYVNPLQMSREDSV [N216A]
MSSPTSLEEDGDIKLKTRFQGQVVVLYARPPLILDDFFALLKDACKQHKKQDITVKWIDEDGDPISIDSQMELDEAVRCLNSSQEAELNIHVFVGKPELPGLPCQGEDKTVYRRGARRWKKIYLYNGHRFQAKRLNRRIQCFICHDYIWGIGRQGFRCVDCRLCVHKKCHRHVRTHCGQALQGPNIIPMAPASGSLKGARSNTSSSTTRSGGGADNGAFHEHEIESPGSTSHDASRAMNGNGSSKWAVSLNDFRLLTVIGRGSYAKVVQAEHVSTRQIYAIKIIKKEMFNEDEDIDWVQTEKSVFEAASNYPFLVGLHSCFQTESRLFFVIEFVPGGDLMFHMQQQRKLPEEHARFYSGEIILALHFLHSRGIIYRDLKLDNVLIDAEGHIKLTDYGMCKENIKDGDLTSTFCGTPNYIAPEILRGDEYGFSVDWWALGVLMFEMMAGRSPFDIVGMQNSEENTEDYLFQIILERQIRIPRSLSVRASGILKGFLNKDPTERLGCKLDINEGLRDMKEHQFFRGFIDWEALEQKAVAPPYHPAVESDRDLTHFDHQFTDELPQLSPDNPDVIARIDQSEFDGFEYVNPLQMSREDSV [I214A]
